Measured values reported in article PMC10524254.
Read-outs that look alike come from different tables or passages of the source.

Substance: CD79A: N112Q
- localisation_or_trafficking (N-glycosylation at N112): no change

Substance: CD79B: N73Q
- localisation_or_trafficking (N-glycosylation at N73): no change

Substance: CD79B: N101Q
- localisation_or_trafficking (N-glycosylation at N101): no change

Substance: IgM: N209Q
- localisation_or_trafficking (N-glycosylation at N209): no change
